Target: ApoE dependent receptors (on bEND.3 mouse endothelial cells) (mouse)
Assay: cell-based or functional assay

uptake of IDS.ApoEII into bEND.3 cells after 24 hours, following blocking with human recombinant ApoE: 30%
Substance: IDS.ApoEII (human iduronate-2-sulfatase with C-terminal invariant flexible linker and ApoE receptor-binding tandem repeat) (from UniProt P22304 26-550) (enzyme)
